Experimental data as given in IntAct's records for PubMed 20937695.

B1: "Na(+)/H(+) exchange regulatory cofactor NHE-RF1" (Homo sapiens), O14745 (parent)
chain: MSADAAAGAPLPRLCCLEKGPNGYGFHLHGEKGKLGQYIRLVEPGSPAEKAGLLAGDRLVEVNGENVEKETHQQVVSRIRAALNAVRLLVVDPETDEQLQKLGVQVREELLRAQEAPGQAEPPAAAEVQGAGNENEPREADKSHPEQRELRPRLCTMKKGPSGYGFNLHSDKSKPGQFIRSVDPDSPAEASGLRAQDRIVEVNGVCMEGKQHGDVVSAIRAGGDETKLLVVDRETDEFFKKCRVIPSQEHLNGPLPVPFTNGEIQKENSREALAEAALESPRPALVRSASSDTSEELNSQDSPPKQDSTAPSSTSSSDPILDFNISLAMAKERAHQKRSSKRAPQMDWSKKNELFSNL
partner: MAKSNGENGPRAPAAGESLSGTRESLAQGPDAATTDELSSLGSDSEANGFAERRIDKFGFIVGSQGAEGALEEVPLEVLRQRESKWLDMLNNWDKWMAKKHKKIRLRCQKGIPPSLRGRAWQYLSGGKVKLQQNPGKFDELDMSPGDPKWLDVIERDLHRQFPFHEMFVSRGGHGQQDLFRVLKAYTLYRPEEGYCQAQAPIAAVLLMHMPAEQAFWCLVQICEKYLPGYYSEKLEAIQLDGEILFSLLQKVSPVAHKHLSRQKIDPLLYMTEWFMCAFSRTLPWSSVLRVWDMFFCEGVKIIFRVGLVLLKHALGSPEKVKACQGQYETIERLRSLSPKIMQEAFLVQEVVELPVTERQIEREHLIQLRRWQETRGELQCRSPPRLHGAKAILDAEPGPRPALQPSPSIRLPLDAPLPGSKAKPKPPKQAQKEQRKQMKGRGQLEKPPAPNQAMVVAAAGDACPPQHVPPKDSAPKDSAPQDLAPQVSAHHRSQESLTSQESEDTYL

Variants of: B1
Settings: with tb10a_human TBC1D10A

Effect of a mutation on the interaction, with no effect:
S280D;S302D
S280A;S302A
S162D;S339D;S340D
